Each block holds one binder with its values, some of them ahead of it.
How the values were obtained:
[1] = target: T1, recombinant human YKL-40 protein (hYKL-40) (Homo sapiens, UniProt P36222); test: ELISA; hYKL-40 coated at 2 ug/mL (30 uL per well, overnight, 4 °C); serially diluted Fabs, 1 h at 37 °C; detection with HRP-conjugated StrepMAB-Classic; apparent affinity (EC50); conditions: both partners purified
T1 construct: human YKL-40 (chitinase-3-like 1, CHI3L1), recombinant protein from Sino Biological; also called chitinase-3-like 1; CHI3L1; source: bought: Sino Biological

recombinant mouse YKL-40 = target: T2, recombinant mouse YKL-40 (Mus musculus, UniProt Q61362); test: western blot; H1 (IgG) as the probing antibody on recombinant human and mouse YKL-40 (Figure S5); conditions: both partners purified
T2 construct: mouse YKL-40 (chitinase-3-like protein 1), recombinant

[2] = target: T3, native YKL-40 from murine cells (Mus musculus, UniProt Q61362); test: western blot; H1 (IgG) as the probing antibody on lysates of human and murine cells (Figure S5); conditions: one partner purified
T3 construct: mouse YKL-40 (chitinase-3-like protein 1), endogenous in murine cells; source: endogenous, murine cell lysates (including mouse lung cells)

[3] = target: T1, recombinant human YKL-40 protein …; test: ELISA; soluble ELISA of serially diluted IgGs on immobilized hYKL-40 surfaces; apparent affinity (EC50); conditions: both partners purified
[4] = target: T1, recombinant human YKL-40 protein …; test: BLI; Octet QK384; hYKL-40 amine-coupled to AR2G tips (15 ug/mL, 10 mM sodium acetate pH 5.0); H1 (IgG) 50 nM~0 nM in 2-fold dilutions in PBS with 0.09% Tween 20; 1:1 binding model; apparent KD; conditions: both partners purified

T1 sequence (P36222 22-383): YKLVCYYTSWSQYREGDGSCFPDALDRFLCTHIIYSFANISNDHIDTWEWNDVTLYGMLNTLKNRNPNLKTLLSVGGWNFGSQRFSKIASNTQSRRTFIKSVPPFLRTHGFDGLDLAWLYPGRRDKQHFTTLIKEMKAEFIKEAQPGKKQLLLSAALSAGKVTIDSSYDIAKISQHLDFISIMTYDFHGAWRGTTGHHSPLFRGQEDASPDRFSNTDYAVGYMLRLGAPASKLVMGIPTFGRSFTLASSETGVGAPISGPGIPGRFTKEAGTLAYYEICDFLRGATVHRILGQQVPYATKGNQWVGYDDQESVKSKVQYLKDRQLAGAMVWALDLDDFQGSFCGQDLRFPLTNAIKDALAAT
T2 sequence (Q61362 30-389): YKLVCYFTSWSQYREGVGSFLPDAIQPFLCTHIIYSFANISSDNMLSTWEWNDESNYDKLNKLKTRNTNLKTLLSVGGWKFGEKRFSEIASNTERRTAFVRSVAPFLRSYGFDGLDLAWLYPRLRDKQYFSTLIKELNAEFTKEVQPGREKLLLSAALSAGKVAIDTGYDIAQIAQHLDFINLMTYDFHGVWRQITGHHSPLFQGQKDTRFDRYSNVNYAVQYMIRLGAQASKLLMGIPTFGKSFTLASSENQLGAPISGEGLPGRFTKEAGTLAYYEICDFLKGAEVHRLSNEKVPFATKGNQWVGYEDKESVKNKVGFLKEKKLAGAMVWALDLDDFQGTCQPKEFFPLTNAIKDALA
T3 sequence (Q61362 30-389): as above

EC50 [1]: 2.3 nM
B1: H1 (Fab), human anti-hYKL-40 Fab (Fab, V domains shown)
VH: EVQLVESGGGLVQPGGSLRLSCAASGFTFSNYAMSWVRQAPGKGLEWVSGISGSGGTTYYADSVKGRFTISRDNSKNTLYLQMNSLRAEDTAVYYCAGVGTFDVWGQGTLVTVSS
VL: DIQMTQSPSSLSASVGDRVTITCRASQTISSWLNWYQQKPGKAPKLLIYAASRLQSGVPSRFSGSGSGTDFTLTISSLQPEDFATYYCQQSYSTPLTFGQGTKVEIK
notes: heavy chain (VH-CH1) of the H1 Fab, from the synthetic library KFab-I (human VH3 framework, randomised CDRs); light chain (VL-CL) of the H1 Fab, from the synthetic library KFab-I (human Vk1 framework, randomised CDRs); it is written on the heavy chain as a surmise; Expression vector pKFAB (in-house); source: E. coli Top10F', periplasmic extract, purified (Strep-Tactin XT)

binding result (recombinant mouse YKL-40): binds
binding result [2]: binds
EC50 [3]: 0.5 nM
Kd [4]: 0.05 nM
B2: H1 (IgG), human anti-hYKL-40 IgG (antibody, V domains shown)
VH: B1 VH
VL: B1 VL
notes: VH of H1, as in the heavy chain of m2 (PDB 7CJ2); human VH3 framework; human IgG1 heavy-chain constant region, from the heavy-chain vector (pOptiVEC) used for Herceptin expression as IgG1 backbone; VL-CL (Vk1, Ck1) of H1, as the light chain of m2 (PDB 7CJ2); IgG1, kappa; VL and CL were amplified and joined by overlap extension PCR; VH was cloned into the Herceptin IgG1 backbone; also called H1 …

— article PMC7504393 (International Journal of Molecular Sciences, 2020)
